Data reported in the supplement of paper PMC10567573.

B1: HMOX1 (parent)
chain: YHIYVALEEEIERNKESPVFAPVY

Variants of: B1
Assay: protein stability index of a GFP-peptide fusion (GPS, HEK-293T) (PSI 1-6); higher = more stable
Settings: c terminus: a fixed tail appended
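Also: lentivirally expressed fusions sorted by FACS into six bins by GFP to DsRed ratio, PSI derived from sequencing read proportions per bin multiplied by bin number.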

Protein stability index of substitutions, site by site:
A6: W 2.2 | C 1.64 | M 2 | N 1.59 | S 1.74 | I 2.02 | H 3.14 | L 2.1 | P 1.99 | F 3.88 | Y 2.62 | D 1.81 | K 2.42 | R 1.7 | T 1.82 | Q 2.42 | E 1.88 | V 3.22
E8: F 2.43 | P 2.49 | M 4.06 | I 2.51 | T 2.19 | R 2.42 | G 3.48 | H 2.18 | L 2.49 | V 2.3 | D 1.53 | S 3.74 | A 2.31 | Q 3.23 | N 1.94 | Y 1.05 | K 2.07
E10: G 1.54 | Y 2 | L 2.27 | N 3.21 | D 2.93 | A 2.59 | H 1.97 | F 1.78 | V 1.92 | W 1.26 | R 1.56 | I 1.74 | Q 2.7 | T 2.83 | C 1.93 | K 1.99 | S 2.81 | M 1.77
E12: A 1.68 | Q 1.95 | I 1.45 | S 2.42 | N 2.29 | K 1.94 | M 1.2 | H 1.58 | P 3.7 | F 2.35 | D 1.43 | G 3.07 | C 1.52 | L 1.83 | R 1.62
E9: Y 1.98 | M 1.72 | R 2.02 | F 2.43 | A 1.91 | G 2.06 | T 1.7 | P 2.6 | L 2.57 | K 2.14 | N 2.26 | H 1.58 | I 1.62 | Q 1.75 | D 1.88 | S 1.87
Y1: W 2.59 | N 3.93 | K 2.57 | E 4.37 | F 2.03 | C 1.89 | I 3.18 | L 1.64 | D 4.59 | T 3.71 | Q 2.78 | M 2.35 | S 2.81 | G 2.26 | V 1.67 | A 2.6 | H 2.5 | P 2.46 | R 2.73
Y4: R 1.57 | K 2.41 | M 1.36 | G 1.64 | A 2.34 | Q 2.35 | P 1.78 | L 2.26 | S 1.58 | H 2.01 | T 1.59 | D 2.29 | N 2.03 | E 2.09 | I 1.49 | F 4.8
I11: Y 2.21 | H 2.01 | T 1.54 | M 2.16 | C 2.46 | G 2.24 | V 1.84 | Q 2.01 | W 2.18 | A 1.31 | S 2.15 | F 1.6 | L 1.57 | R 1.56 | P 2.07 | N 1.48 | E 1.89 | K 2.05 | D 1.58
L7: W 2.2 | F 1.97 | S 1.56 | P 1.59 | G 2.48 | A 2.34 | V 2.93 | E 1.76 | Q 2.16 | D 2.03 | R 1.67 | M 1.62 | T 1.88 | Y 2.02 | N 1.88 | C 2.75 | H 1.49 | I 1.76 | K 2.2
V5: H 2.34 | I 1.94 | P 2.43 | G 2.23 | K 3.47 | F 1.63 | L 2.29 | Y 1.47 | C 1.79 | M 2.79
